Reference: US20250122254A1, “Recombinant Fusion Proteins Comprising Interleukin- 18-Binding Protein and Antigen Binding Fragment to Serum Albumin, and Compositions and Uses Thereof” (published 2025)
Where two headings read alike, the source gives them in different places. One block for each binder: values may come before it.

Assays:
[1] = molecular target: T1, recombinant human IL-18 (human, UniProt Q14116); experiment: cell-based or functional assay
[2] = molecular target: T1, recombinant human IL-18
Target sequence in this assay (Q14116 37-193 limits assumed): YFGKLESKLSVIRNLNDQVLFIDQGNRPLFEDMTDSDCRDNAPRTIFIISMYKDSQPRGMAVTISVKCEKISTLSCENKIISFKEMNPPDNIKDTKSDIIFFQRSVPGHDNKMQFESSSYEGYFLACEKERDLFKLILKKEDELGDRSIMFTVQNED

- IC50 of inhibition of IL-18-induced IFN-γ production in KG-1 cells [1]: 24 pM
B1: recombinant human IL-18-binding protein with His-tag (hIL18BP-his8) (other)
chain: TPVSQTTTAATASVRSTKDPCPSQPPVFPAAKQCPALEVTWPEVEVPLNGTLSLSCVACSRFPNFSILYWLGNGSFIEHLPGRLWEGSTSRERGSTGTQLCKALVLEQLTPALHSTNFSCVLVDPEQVVQRHVVLAQLWAGLRATLPPTQEALPSSHSSPQQQGHHHHHHHH

- IC50 of inhibition of IL-18-induced IFN-γ production in KG-1 cells [2]: 41.9 pM
B2: APB-R3 protein (protein)
heavy: QVQLVQSGGGPVKPGGSLRLSCAASGFMFRAYSMNWVRQAPGKGLEWVSSISSSGRYIHYADSVKGRFTISRDNAKNSLYLQMNSLRAEDTAVYYCARETVMAGKALDYWGQGTLVTVSSASTKGPSVFPLAPSSKSTSEGTAALGCLVKDYFPEPVTVSWNSGALTSGVHTFPAVLQSSGLYSLSSVVTVPSSSLGTQTYICNVNHKPSNTKVDKKVEPKSSGSAPAPGSTPVSQTTTAATASVRSTKDPCPSQPPVFPAAKQCPALEVTWPEVEVPLNGTLSLSCVACSRFPNFSILYWLGNGSFIEHLPGRLWEGSTSRERGSTGTQLCKALVLEQLTPALHSTNFSCVLVDPEQVVQRHVVLAQLWAGLRATLPPTQEALPSSHSSPQQQG
light: DIVLTQSPGTLSLSPGETATLSCRASQSVGSNLAWYQQKPGQAPRLLIYGASTGATGVPARFSGSRSGTDFTLTITSLQPEDFATYYCQQYYSFLAKTFGQGTQLEIKRTVAAPSVFIFPPSDEQLKSGTASVVCLLNNFYPREAKVQWKVDNALQSGNSQESVTEQDSKDSTYSLSNTLTLSKADYEKHKVYACEVTHQGLSSPVTKSFNRGES
